# Source: paper PMC6640723 (2019)
# Assays:
# [1] = target: recombinant gp41 (ARP680) (HIV-1); assay: ELISA
# [2] = target: gp140UG37 (ARP698, Polymun) (HIV-1 strain UG037); assay: ELISA
binder,measurement,setting,value
VHH 2E7 (VHH) VHH: DVQLQESGGGLVQPGGSLRLSCAASGNIVSIDAAGWFRQAPGKQREPVATILTGGATNYADSVKGRFTISRDNAKNTVYLQMNSLKPEDTAVYYCYAPMIYYGGRYSDYWGQGTQVTVS,IC50,[1],3.2 nM
same,IC50,[2],0.9 nM
